Patent US20120178124A1, “STEROL SIDE CHAIN-CLEAVING ENZYME PROTEIN AND USE THEREOF” (MITSUBISHI CHEMICAL CORPORATION, priority 2009, published 2012)
Where “and” joins values, the source holds several entries; their conditions need not be identical. Equal values may be shown once.

Assays:
Format in all cases: biochemical
[1] = Kinetics analysis of CYP204A1 and CYPSS; conditions: for Specific activity: pH 7.5, 15° C., 60 minutes
Method: Moreover, the activity decrease rate when the substrate concentration is increased from 10 μM to 100 μM can also be obtained by conducting the conversion of 4-cholesten-3-one at a substrate concentration of 0.1 to 500 μM and then examining the relationship between the substrate concentration and the activity of the enzyme protein. Specifically, there is prepared 1 ml of a reaction solution, which comprises […] CYP204A1 or […] CYPSS204A, 96 μg/ml spinach-derived ferredoxin, 0.1 U/ml spinach-derived ferredoxin reductase protein, 3 U/ml glucose dehydrogenase, 60 mM glucose, 2 mM NADH and 2 mM NADPH. Tris-HCl is then added to the reaction mixture to adjust to pH 7.5. 20 μl of 4-cholesten-3-one used as a substrate, dissolved in DMSO to have a final concentration of 0.1, 0.5, 1, 2, 5, 10, 20, 50, 100 or 500 μM, is added to the reaction mixture. The reaction is initiated by addition of NADH and NADPH, and it can be carried out at 200 rpm at 15° C. for 60 minutes.
(§1) To 20 ml of the cell suspension prepared in (2) above, 680 μl of X10 Bug Buster (Novagen), 20 μl of Benzonase (Novagen), and 2 ml of 40 mg/ml lysozyme were added, and the obtained mixture was then shaken at 30° C. for 30 minutes to disintegrate the cells. Thereafter, the reaction solution was centrifuged to obtain the cell-free extract. The obtained, approximately 20 ml of cell-free extract was dialyzed against 1 L of Buffer R (20 mM KPB pH 7.4, 20% glycerol) two times, and the deposited precipitate was then removed by centrifugation. The cell-free extract obtained as a supernatant herein was used in the subsequent experiments.
Using the cell-free extract prepared in (3) above, conversion of 4-cholesten-3-one was carried out at substrate concentration of 0.1 to 500 μM, and the relationship between the substrate concentration and the enzyme protein activity was examined. The reaction solution was prepared, such that 1 ml of the buffer comprised 220 pmol CYP204A1 or 250 pmol CYPSS, 96 μg/ml spinach-derived ferredoxin, 0.1 U/ml spinach-derived ferredoxin reductase protein, 3 U/ml glucose dehydrogenase, 60 mM glucose, 2 mM NADH, and 2 mM NADPH. Tris-HCl was added to the reaction solution so as to adjust it to pH 7.5. 20 μl of 4-cholesten-3-one, which had been dissolved in DMSO to a final concentration of 0.1, 0.5, 1, 2, 5, 10, 20, 50, 100 or 500 μM, was added. The reaction was initiated by addition of NADH and NADPH, and it was carried out at 200 rpm at 15° C. for 60 minutes. Thereafter, 1.5 ml of ethyl acetate was added to the reaction solution to terminate the reaction, and extraction was carried out. Then, extraction was carried out again with 0.75 ml of ethyl acetate. The obtained ethyl acetate phase was solidified using evaporator, and the residue was then dissolved in 200 μl of methanol. Thereafter, progesterone was detected by HPLC analysis. The relationship between the substrate concentration and the enzyme protein activity, and kinetics parameters calculated by production of Lineweaver-Burk plot, is shown in Table 5.

[2] = pH stability test of cell-free extract; conditions: for Relative activity: 140 hr versus 0 hr, 6° C.; for Activity 0 hr: immediately after mixing, reaction 15° C., 4 hours, pH 7.5
Method: as §1
0.5 ml of the cell-free extract prepared in (3) above was mixed with 0.5 ml of 50 mM buffer having various pH values, pH was then measured, and the mixture was then conserved at 6° C. for 140 hours. […] Using the prepared cell-free extracts having various pH values, conversion of 4-cholesten-3-one was carried out. The reaction was carried out, immediately after the enzyme protein solution was mixed with buffers having various pH values and after the mixed solution was conserved for 140 hours, so as to examine the stability. The reaction solution was prepared, such that 1 ml of the buffer comprised an enzyme protein solution of CYP204A1 or CYPSS having various pH values, 64 μg/ml spinach-derived ferredoxin, 0.1 U/ml spinach-derived ferredoxin reductase protein, 3 U/ml glucose dehydrogenase, 60 mM glucose, 50 μg/ml 4-cholesten-3-one, 2 mM NADH, and 2 mM NADPH. To the reaction solution, 562 μl of 200 mM Tris-HCl was added, so as to adjust the reaction solution to pH 7.5. It was confirmed that the reaction solution maintained pH 7.5, even though enzyme protein solutions having various pH values were added thereto. The reaction was initiated by addition of NADH and NADPH, and it was carried out at 200 rpm at 15° C. for 4 hours. Thereafter, 1.5 ml of ethyl acetate was added to the reaction solution to terminate the reaction, and extraction was carried out. Then, extraction was carried out again with 0.75 ml of ethyl acetate. The obtained ethyl acetate phase was solidified using an evaporator, and the residue was then dissolved in 200 μl of methanol. Thereafter, progesterone was detected by HPLC analysis.

[3] = Kinetics analysis of CYP204A1 and CYPSS; conditions: 4-cholesten-3-one 100 μg/ml (so in the source)
[4] = 4-cholesten-3-one concn. 100 μM
[5] = 4-cholesten-3-one, Lineweaver-Burk plot

For `CC(C)CCC[C@@H](C)[C@H]1CC[C@H]2[C@@H]3CCC4=CC(=O)CC[C@]4(C)[C@H]3CC[C@]12C` [4-cholesten-3-one], the substrate inhibition ([1]; 4-cholesten-3-one 0.1 to 500 μM) was “causes substrate inhibition”.

B1: Sphingomonas subterranea NBRC16086 P450scc CYPSS204A (CYPSS), wild type, SEQ ID NO: 2 (Novosphingobium subterraneum) (protein)
chain: MASAAAGADGLPLLDGGVPLLGHLAQFFRDPVSVLKRGYRSKGRLFAMNFMGQRMNVMLGPEHNRFFFEETDKLLSIRESMPFFLKMFSPEFYSFAEMDEYLRQRAIIMPRFKAASMKQYVPVMVEESLNLVERLGEEGEFDLIPTLGPVVMDIAAHSFMGREFHEKLGHEFFELFRDFSGGMEFVLPLWLPTPKMVKSQRAKKKLHAILQSWIDKRRASPLDPPDFFQTMIETKYPDGRAVPDEIIRHLILLLVWAGHETTAGQVSWALADLLQNPGYQQVLREEVASLLGGSDGRALGWEQAVAMEKMDLALRETERLHPVAYMLSRKASADIERDGYRIRKGEFVLLAPSVSHRMEETFRNADAYDPERFNPQNPDAQIESNSLIGFGGGVHRCAGVNFARMEMKVLVAILLQNFDMELIDEVRPIAGASTYWPAQPCRVRYKRRKLDGAGGSADVAALAKAAGCPAHA
In the case of B1, the Relative activity ([2]; AcB pH 6.0) is reported as 37%, the “Activity 140 hr” value ([2]; AcB pH 6.0, conserved at 6° C. for 140 hours) is reported as 2.7 µg/mL and the “Activity 0 hr” value ([2]; AcB pH 6.0) is reported as 7.3 µg/mL. The Relative activity ([2]; KPB pH 6.7) was 61%, the “Activity 140 hr” value ([2]; KPB pH 6.7, conserved at 6° C. for 140 hours) was 4.3 µg/mL and the “Activity 0 hr” value ([2]; KPB pH 6.7) was 7.1 µg/mL. For the same molecule, the Relative activity ([2]; KPB pH 7.2) was 73%, the “Activity 140 hr” value ([2]; KPB pH 7.2, conserved at 6° C. for 140 hours) was 5.3 µg/mL and the “Activity 0 hr” value ([2]; KPB pH 7.2) was 7.3 µg/mL. For the same molecule, the Relative activity ([2]; KPB pH 7.6) was 85%, the “Activity 140 hr” value ([2]; KPB pH 7.6, conserved at 6° C. for 140 hours) was 5.5 µg/mL and the “Activity 0 hr” value ([2]; KPB pH 7.6) was 6.5 µg/mL. For the same molecule, the “pH at which most stable” value ([2]; KPB, conserved at 6° C. for 140 hours) was 7.6, the Relative activity ([2]; TES pH 7.5) was 71% and the “Activity 140 hr” value ([2]; TES pH 7.5, conserved at 6° C. for 140 hours) was 5.2 µg/mL. For the same molecule, the “Activity 0 hr” value ([2]; TES pH 7.5) was 7.3 µg/mL, the Relative activity ([2]; Tris pH 7.4) was 63% and the “Activity 140 hr” value ([2]; Tris pH 7.4, conserved at 6° C. for 140 hours) was 5 µg/mL. For the same molecule, the “Activity 0 hr” value ([2]; Tris pH 7.4) was 8 µg/mL, the Relative activity ([2]; Tris pH 8.1) was 65% and the “Activity 140 hr” value ([2]; Tris pH 8.1, conserved at 6° C. for 140 hours) was 4.5 µg/mL. The “Activity 0 hr” value ([2]; Tris pH 8.1) was 6.9 µg/mL, the Relative activity ([2]; Tris pH 8.9) was 51% and the “Activity 140 hr” value ([2]; Tris pH 8.9, conserved at 6° C. for 140 hours) was 3.7 µg/mL. For the same molecule, the “Activity 0 hr” value ([2]; Tris pH 8.9) was 7.3 µg/mL, the “Vmax value compared with that of CYP204A1” value ([1]; 4-cholesten-3-one) was “approximately 1.7 times” and the Specific activity ([1]; 4-cholesten-3-one concn. 0.1 μM) was 1.9 mmol/min/mol. For the same molecule, the Specific activity ([1]; 4-cholesten-3-one concn. 0.5 μM) was 20.0 mmol/min/mol, the Specific activity ([1]; 4-cholesten-3-one concn. 1 μM) was 36.5 mmol/min/mol and the Specific activity ([1]; 4-cholesten-3-one concn. 2 μM) was 49.5 mmol/min/mol. For the same molecule, the Specific activity ([1]; 4-cholesten-3-one concn. 5 μM) was 70.4 mmol/min/mol, the “Specific activity relative to that at 10 μM” value ([1]; 4-cholesten-3-one concn. 10 μM (reference)) was 100 and the Specific activity ([1]; 4-cholesten-3-one concn. 10 μM) was 67.2 mmol/min/mol. The Specific activity ([1]; 4-cholesten-3-one concn. 20 μM) was 72.4 mmol/min/mol, the Specific activity ([1]; 4-cholesten-3-one concn. 50 μM) was 71.2 mmol/min/mol and the “Specific activity relative to that at 10 μM” value [1, 4] was 90.0. For the same molecule, the Specific activity [1, 4] was 60.5 mmol/min/mol, the Specific activity ([1]; 4-cholesten-3-one concn. 500 μM) was 33.6 mmol/min/mol and the Km [1, 5] was 1.1 µM and ~1 µM. For the same molecule, the Vmax [1, 5] was 78.7 mmol/min/mol and the “enzyme protein activity in comparison with that at 10 μM 4-cholesten-3-one” value [3] was 90%.
